To fix the notation:
B1: TPR 5TU (parent)
chain: GGAUCUUCUCGAUCUAACAAAAAAGACAAAUCUGCCACAAAGCUUGAGAGCAUCUUCGGAUGCAGAGGCGGCAGCCUUCGGUGGCGCGAUAGCGCCAACGUUCUCAACUAUGACACGCAAAACGCGUGCUCCGUUGAAUGGAGUUUAUCAUG

This sample holds only a part of the variants without activity.

In the series the parent is B1. As to the kind of experiment: polymerase ribozyme fitness, log enrichment relative to wild type (log ratio); higher = more active; in vitro selection for triplet polymerase activity. Put shortly: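 Frozen incubation at −7 °C formed the core of a single, triplicate in vitro selection round applied to PCR-built, transcribed mutant libraries of each subunit of a heterodimeric triplet polymerase ribozyme. Extended constructs were gel-excised, captured with streptavidin beads and amplified by RT-PCR, and input and output libraries were Illumina-sequenced with a filter of ≥10 input reads and ≥1 read per output. Fitness is the logarithm of genotype enrichment relative to wild-type enrichment, with inverse-variance-weighted replicate averaging, and the logarithm is base 2.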
As for GGAUCUUCUCGAUCUAACAAAAAAGACAAAUCUGCCACAAAGCUUGAGAGCAUCUUGGGAUGCAGAGGCGACAGCCUUCGGUGGCGCGAUAGCGCAAACGUUCUCAACUAUGACACGCAAAACGCGUGCUCCGUUGAAUGGAGUUAAUCAUG [C57G G71A C96A U146A], the “polymerase ribozyme fitness (log ratio)” value is -4.05.

Turning to GGAUCUUCUCGAUCUAACAAAAAAGACAAAUCUGCCACAAAGCUUGAGAGCAUCUUGGGAUGCAGAUGCGGCAGCCUUCGGUGGCGCGAUACCGCCAACGUUCUCCACUAUGACACGCAAAACGCGUGCUCCGUUGAAUGGAGUUUAUCAUG [C57G G67U G92C A106C], the “polymerase ribozyme fitness (log ratio)” value was at most -4.2.

For GGAUCUUCUCGAUCUAACAAAAAAGACAAAUCUGCCACAAAGCUUGAGAGCAUCUUGGGAUGCAGAGGCGGCAGCCUUCGGUCGUGCGAUAGCGCCAACGUUCUCAACUAUGACACGCGAAACGCGUGCUCCGUUGAAUGGAGUUUAUCAUG [C57G G83C C85U A119G], the “polymerase ribozyme fitness (log ratio)” value is -1.44.

Take GGAUCUUCUCGAUCUAACAAAAAAGACAAAUCUGCCACAAAGCUUGAGAGCAUCUUGAGGUGCAGAGGCGGCAGCCUUCGGUGGCGCGAUAGCGCCAACGUUCUCAACUAUGACACGCAAAACGCGUGCUCCGUUGUAUGGAGUUUAUCAUG [C57G G58A A60G A137U]: the “polymerase ribozyme fitness (log ratio)” value is -4.15.

Turning to GGAUCUUCUCGAUCUAACAAAAAAGACAAAUCUGCCACAAAGCUUGAGAGCAUCUUGGGAUGCAGAGGCGGCAGCCUUCGGUGGCGCGAUAGCACCAACGUUCUCAACUAUGACACGCAAAACGCGUGCUCCGUUGAAUGCAGUUUAUCAUG [C57G G94A G141C], the “polymerase ribozyme fitness (log ratio)” value was -0.316.

Consider GGAUCUUCUCGAUCUAACAAAAAAGACAAAUCUGCCACAAAGCUUGAGAGCAUCUUGGGAUGCAGAGGCGGCAGCCUUCGGUGGCGCGAUAGCGCCAACGUUCUCAACUAUGACAAGCAAAACGCGUGCUCCGUUGAAUGGAGUUUAUCAUG [C57G C116A], for which the “polymerase ribozyme fitness (log ratio)” value was determined as 1.35.

As to GGAUCUUCUCGAUCUAACAAAAAAGACAAAUCUGCCACAAAGCUUGAGAGCAUCUUGGGAUGCAGAGGCGGCAGCCUUCGGUGGCGCGAUAGCGCAAACGUUCUCAACUAUGACACGCAAAACGCGUGCUCCGUUGAAGGGAGUUUAUCAUG [C57G C96A U139G], the “polymerase ribozyme fitness (log ratio)” value was -0.754.

For the variant GGAUCUUCUCGAUCUAACAAAAAAGACAAAUCUGCCACAAAGCUUGAGAGCAUCUUGGCAUGCAGAGGCGGCAGCCUUCGGUGGCACGAUAGCGCCAACGUUCUCAACUAUGACACGCAAAACGCGUGCUCCGUUGAAUGGGGUUUAUCAUG [C57G G59C G86A A142G], the “polymerase ribozyme fitness (log ratio)” value was -3.23.

For GGAUCUUCUCGAUCUAACAAAAAAGACAAAUCUGCCACAAAGCUUGAGAGCAUCUUGCGAUGCAGAGGCGGCAGCCUUCGGUGGCGCGAUAGCGCCAACGUUCUCAACUAUGACACGCAAAACGCGUGCUCCGUUGCAUGGAGUUUAUCAUG [C57G G58C A137C], the “polymerase ribozyme fitness (log ratio)” value was -3.85.

As to GGAUCUUCUCGAUCUAACAAAAAAGACAAAUCUGCCACAAAGCUUGAGAGCAUCUUGGGAUGCAGACGCGGCAGCCUUCGGUGGCGCGAUAGCGCCAACGUUCUCAACUAUGACACGCAAAACGCGUGCUCCGUUGAAUGGAGUUUAUCAUG [C57G G67C], the “polymerase ribozyme fitness (log ratio)” value was -4.16.

On to GGAUCUUCUCGAUCUAACAAAAAAGACAAAUCUGCCACAAAGCUUGAGAGCAUCUUGGGAUGCAGAGGCGGCAGCCUUCGGUGGCGCGAUAGCGUCAACGUUCUCAACUAUGACACGCAAAACGCGUGCUCCGUUGAAUGGAGUUUAUCAUG [C57G C95U], for which the “polymerase ribozyme fitness (log ratio)” value was -1.18.

With GGAUCUUCUCGAUCUAACAAAAAAGACAAAUCUGCCACAAAGCUUGAGAGCAUCUUGGGAUGCACAGGCGGCAGCCUUCGGUGACGCGAUAGCGCCAACGUUCUCAACUAUGACACGCAAAACGCGUGCUCCGUUGAAAUGAGUUUAUCAUG [C57G G65C G84A U139A G140U], the “polymerase ribozyme fitness (log ratio)” value is at most -4.2.

In the case of GGAUCUUCUCGAUCUAACAAAAAAGACAAAUCUGCCACAAAGCUUGAGAGCAUCUUGGGAUGCAGAGGCGGCAGCCUUCGGUGUCGCGCUAGCGCCAACGUUCUCAACUAUCACACGCAAAACGCGUGCUCCGUUGAACGGAGUUUAUAAUG [C57G G84U A89C G112C U139C C149A], the “polymerase ribozyme fitness (log ratio)” value is at most -4.2.

As to GGAUCUUCUCGAUCUAACAAAAAAGACAAAUCUGCCACAAAGCUUGAGAGCAUCUUGGGAUGCAGAGGCGGCAGCCUUCGGUGGCGCAAUAGCGCUAACGUUCUCAACUAUGACACGCAAAACGCGUGCUCCGUUGAACGGGGUUUAUCAUG [C57G G88A C96U U139C A142G], the “polymerase ribozyme fitness (log ratio)” value is at most -4.2.

GGAUCUUCUCGAUCUAACAAAAAAGACAAAUCUGCCACAAAGCUUGAGAGCAUCUUGGGAUGCAGAGGCGGCAGCCUUCGGUGGUGCGAUAGCGCCAACGUUCUCAACUAUGACACUGAAAACGCGUGCUCCGUUGAAUGGAGUUUAUCAUG [C57G C85U G117U C118G]: the “polymerase ribozyme fitness (log ratio)” value is -1.51.

GGAUCUUCUCGAUCUAACAAAAAAGACAAAUCUGCCACAAAGCUUGAGAGCAUCUUGGGAUGCAGAGUCGGCAGCCUUCGGUGGCGCGAUAGCUCCAACGUUCUCAACUAUGACAGGCAAAACGCGUGCUCCGUUGAAUGGAGUUUAUCAUG [C57G G68U G94U C116G]: the “polymerase ribozyme fitness (log ratio)” value is at most -4.2.

GGAUCUUCUCGAUCUAACAAAAAAGACAAAUCUGCCACAAAGCUUGAGAGCAUCUUGGGAUGCAGAGACGGCAGCCUUCGGUGUCGCGAUAGCGCCAACGUUCUCAACUAUGACACGCAAAACGCCUGCUCCGUGGAAUGGAGAUUAUCAUG [C57G G68A G84U G126C U135G U144A]: the “polymerase ribozyme fitness (log ratio)” value is at most -4.2.

Turning to GGAUCUUCUCGAUCUAACAAAAAAGACAAAUCUGCCACAAAGCUUGAGAGCAUCUUGGGAUGCAGAGGCGGCAGCCUUCGGUGGCGCGAUAGCGCCAACGUUCUCAACUAUGAUACGCAAAACGCGUGCUCCGUUGAAUGGAGUUUAUCAUG [C57G C114U], the “polymerase ribozyme fitness (log ratio)” value is -1.83.

Take GGAUCUUCUCGAUCUAACAAAAAAGACAAAUCUGCCACAAAGCUUGAGAGCAUCUUGGGAUGCAGAGGCGGCAGCCUUCGGUGGCGCGAUAGCGCCAACGUUCUCAACUAUGAAACGCAAAACGCGUGCUCCGUUGAAUGGAGUUUAUCAUG [C57G C114A]: the “polymerase ribozyme fitness (log ratio)” value is -3.32.
